# Measured values taken from IntAct's records for PubMed 26656091.
# B1: Adapter molecule crk (Homo sapiens), P46108-1 (parent)
# chain: MAGNFDSEERSSWYWGRLSRQEAVALLQGQRHGVFLVRDSSTSPGDYVLSVSENSRVSHYIINSSGPRPPVPPSPAQPPPGVSPSRLRIGDQEFDSLPALLEFYKIHYLDTTTLIEPVSRSRQGSGVILRQEEAEYVRALFDFNGNDEEDLPFKKGDILRIRDKPEEQWWNAEDSEGKRGMIPVPYVEKYRPASASVSALIGGNQEGSHPQPLGGPEPGPYAQPSVNTPLPNLQNGPIYARVIQKRVPNAYDKTALALEVGELVKVTKINVSGQWEGECNGKRGHFPFTHVRLLDQQNPDEDFS
# Variants of: B1
# Conditions: with ppia_human PPIA
row,Variant,effect of a mutation on the interaction
1,P220A,disrupting interaction strength

# Variants of: B1
# Conditions: with ppia_human PPIA
# Remark: another data set of the same source
row,Variant,effect of a mutation on the interaction
1,P218F,increasing interaction strength
